The values that follow come from article PMC11847078.

In one assay the target is CD4-Nav1.6-CTD-NLuc (UniProt Q9UQD0). In words: split reporter (BiFC, NanoBiT); in-cell split-luciferase complementation assay (LCA); HEK293 cells transiently cotransfected with CD4-Nav1.6-CTD-NLuc and CLuc-GSK3β or a mutant; D-luciferin, 37 °C; peak luminescence as percent of the per-plate control; in one set cells treated with vehicle (0.5% DMSO) or 2 μM CHIR99021 for 1 h before the read-out.

The target in a further assay is GSK3β (UniProt P49841). Description: split-luciferase complementation assay in HEK293. The settings on record: reference: vehicle (0.5% DMSO); sites T1936.

UniProt Q9UQD0, sequence (Q9UQD0 whole entry): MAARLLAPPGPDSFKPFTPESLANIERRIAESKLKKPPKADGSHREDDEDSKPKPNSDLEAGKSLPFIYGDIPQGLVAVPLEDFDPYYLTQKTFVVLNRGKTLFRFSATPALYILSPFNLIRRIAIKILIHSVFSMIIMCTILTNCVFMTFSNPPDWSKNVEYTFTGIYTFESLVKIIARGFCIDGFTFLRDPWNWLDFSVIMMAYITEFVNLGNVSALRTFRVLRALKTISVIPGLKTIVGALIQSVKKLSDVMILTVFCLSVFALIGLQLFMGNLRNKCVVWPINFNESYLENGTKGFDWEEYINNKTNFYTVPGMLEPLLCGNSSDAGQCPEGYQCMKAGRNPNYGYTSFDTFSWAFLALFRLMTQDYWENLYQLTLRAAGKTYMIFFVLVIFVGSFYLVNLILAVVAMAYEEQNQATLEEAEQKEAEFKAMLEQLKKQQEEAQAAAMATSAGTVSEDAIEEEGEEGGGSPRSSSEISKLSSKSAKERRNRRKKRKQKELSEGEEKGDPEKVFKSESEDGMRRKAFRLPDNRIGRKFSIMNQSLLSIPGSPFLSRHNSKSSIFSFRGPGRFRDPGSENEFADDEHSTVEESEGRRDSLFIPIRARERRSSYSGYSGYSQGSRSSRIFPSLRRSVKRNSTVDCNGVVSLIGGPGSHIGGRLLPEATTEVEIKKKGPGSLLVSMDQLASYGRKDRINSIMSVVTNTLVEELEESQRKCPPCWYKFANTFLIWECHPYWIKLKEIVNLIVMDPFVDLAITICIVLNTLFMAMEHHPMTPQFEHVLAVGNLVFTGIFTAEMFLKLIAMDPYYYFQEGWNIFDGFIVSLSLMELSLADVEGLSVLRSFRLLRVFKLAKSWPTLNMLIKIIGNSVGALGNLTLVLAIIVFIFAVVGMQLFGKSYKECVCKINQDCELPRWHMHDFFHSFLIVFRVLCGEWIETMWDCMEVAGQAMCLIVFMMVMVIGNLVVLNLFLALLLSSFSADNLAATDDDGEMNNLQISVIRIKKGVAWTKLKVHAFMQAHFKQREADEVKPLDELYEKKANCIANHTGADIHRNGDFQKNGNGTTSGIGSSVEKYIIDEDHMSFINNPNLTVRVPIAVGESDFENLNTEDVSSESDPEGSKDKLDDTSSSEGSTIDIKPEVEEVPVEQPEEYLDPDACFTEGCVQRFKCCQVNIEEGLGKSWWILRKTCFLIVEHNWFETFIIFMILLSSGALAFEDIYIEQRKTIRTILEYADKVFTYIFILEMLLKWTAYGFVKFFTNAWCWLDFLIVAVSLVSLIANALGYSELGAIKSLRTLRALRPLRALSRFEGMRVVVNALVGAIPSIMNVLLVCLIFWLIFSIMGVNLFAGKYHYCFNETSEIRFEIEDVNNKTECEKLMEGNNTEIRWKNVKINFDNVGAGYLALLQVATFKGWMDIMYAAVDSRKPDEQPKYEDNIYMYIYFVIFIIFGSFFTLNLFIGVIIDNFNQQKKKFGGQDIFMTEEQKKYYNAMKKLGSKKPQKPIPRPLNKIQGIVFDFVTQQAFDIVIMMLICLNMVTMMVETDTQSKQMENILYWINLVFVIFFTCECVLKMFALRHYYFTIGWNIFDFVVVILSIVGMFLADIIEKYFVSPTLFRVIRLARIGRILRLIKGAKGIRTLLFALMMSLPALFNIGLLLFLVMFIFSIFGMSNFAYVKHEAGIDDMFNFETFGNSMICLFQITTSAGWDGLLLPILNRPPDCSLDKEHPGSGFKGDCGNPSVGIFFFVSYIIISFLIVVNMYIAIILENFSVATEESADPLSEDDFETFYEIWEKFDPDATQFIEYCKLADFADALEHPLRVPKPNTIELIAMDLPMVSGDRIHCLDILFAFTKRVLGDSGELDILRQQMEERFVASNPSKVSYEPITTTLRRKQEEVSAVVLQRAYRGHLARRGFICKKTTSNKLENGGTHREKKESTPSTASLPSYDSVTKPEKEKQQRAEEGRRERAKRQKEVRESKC
CLuc-GSK3β, sequence (P49841 whole entry): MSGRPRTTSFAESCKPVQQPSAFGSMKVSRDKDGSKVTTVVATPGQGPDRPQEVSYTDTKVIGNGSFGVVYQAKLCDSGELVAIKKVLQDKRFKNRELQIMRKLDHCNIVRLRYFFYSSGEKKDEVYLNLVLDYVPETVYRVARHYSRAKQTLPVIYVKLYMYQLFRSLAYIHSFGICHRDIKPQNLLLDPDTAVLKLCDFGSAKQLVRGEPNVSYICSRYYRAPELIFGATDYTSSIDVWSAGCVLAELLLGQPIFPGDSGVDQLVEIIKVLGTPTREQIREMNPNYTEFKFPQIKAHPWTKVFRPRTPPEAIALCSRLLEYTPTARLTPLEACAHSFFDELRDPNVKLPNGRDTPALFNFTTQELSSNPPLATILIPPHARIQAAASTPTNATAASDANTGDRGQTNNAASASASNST

“CLuc-GSK3β (from UniProt P49841 1-420) (enzyme)”: in the assay with CD4-Nav1.6-CTD-NLuc, the % Lum with 2 μM CHIR99021 (relative to Nav1.6:GSK3β + DMSO) was 91.2 % Lum and the % Lum with vehicle (0.5% DMSO; the control to which the set is normalised) turned out to be 100 % Lum.

In the case of “CLuc-GSK3βΔABD (from UniProt P49841 1-420) (enzyme)”, in the assay with CD4-Nav1.6-CTD-NLuc, the % Lum (luminescence relative to Nav1.6:GSK3β control) turned out to be 42 % Lum, the % Lum with 2 μM CHIR99021 (relative to Nav1.6:GSK3β + DMSO) was 58.2 % Lum and the % Lum with vehicle (0.5% DMSO) (relative to Nav1.6:GSK3β + DMSO) is 60.9 % Lum.

On to “CLuc-GSK3βΔCTD (from UniProt P49841 1-343) (domain or fragment)”, for which the % Lum (luminescence relative to Nav1.6:GSK3β control) in the assay with CD4-Nav1.6-CTD-NLuc is 167 % Lum.

With “Nav1.6 C-terminal domain (CTD) 2 μM CHIR99021, 1 h”, in the assay with GSK3β, the “other: % luminescence of WT GSK3β + DMSO control” value was “same; reference 60.9 ± 3.3” and the percent of reference entry was “same; reference 100.0 ± 4.4”.
